Laboratory results from publication PMC9352680, “A comprehensive thermodynamic model for RNA binding by the Saccharomyces cerevisiae Pumilio protein PUF4”.

T1: PUF4 RNA-binding domain (Saccharomyces cerevisiae, UniProt P25339 537-888)
T1 sequence: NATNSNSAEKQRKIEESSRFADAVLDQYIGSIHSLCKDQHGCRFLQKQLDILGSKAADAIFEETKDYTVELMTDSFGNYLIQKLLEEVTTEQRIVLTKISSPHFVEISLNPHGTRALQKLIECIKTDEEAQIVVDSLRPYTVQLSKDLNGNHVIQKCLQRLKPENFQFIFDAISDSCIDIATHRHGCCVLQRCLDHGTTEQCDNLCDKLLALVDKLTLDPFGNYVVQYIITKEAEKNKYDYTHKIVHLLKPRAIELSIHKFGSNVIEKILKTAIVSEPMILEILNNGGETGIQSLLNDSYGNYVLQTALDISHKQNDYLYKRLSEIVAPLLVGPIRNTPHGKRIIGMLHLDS


Biological target: T1, PUF4 RNA-binding domain
Experiment: Mg; RNA-MaP; 20 mM Na-HEPES pH 7.4, 30 mM KOAc, 0.75 mM MgCl2, 0.1% Tween-20, 5% glycerol, 0.1 mg/mL BSA, 2 mM DTT; 25 C; 0.0125-409.6 nM protein
Conditions: tags: N-His6-TEV cleaved; C-SNAP kept, Cy3B-labelled; label: tethered on chip by stalled RNA polymerase

| Binder | Kd [nM] |
| --- | --- |
| UCUCUUCAUAUAUAUAGCUCUCUU (ssRNA) [Id_ii_S1_P3E.3_K3.2_C3.2_[T-1A]_H3.2_A3.1_F3.1_T3.2_[T9G]_[A10C]] | 512 |
| UCUCUUCCUAUAUAUAUGUCUCUU (ssRNA) [Id_ii_S1_P3E.3_K3.2_C3.2_[T-1C]_H3.2_A3.1_F3.1_T3.2_[A10G]] | 770 |
| UCUCUUCUUAUAUAUACGUCUCUU (ssRNA) [Id_ii_S1_P3E.3_K3.2_C3.2_H3.2_A3.1_F3.1_T3.2_[T9C]_[A10G]] | 1260 |
| UCUCUUCUUAUAUAUACAUCUCUU (ssRNA) [Id_ii_S1_P3E.3_K3.2_C3.2_H3.2_A3.1_F3.1_T3.2_[T9C]] | 907 |
| UCUCUUUGACACUAUAAAUCUCUU (ssRNA) [Id_ii_S1_P3E.4_K3.3_C3.2_[C-2T]_[T-1G]_H3.3_A3.1_F3.1_T3.2_[T9A]] | > 2300 |
| UCUCUUUUUAUCUUAUCUCUU (ssRNA) [Ib_S1_P4E.1_K4.1_C4.1_H4.1_[G2T]_A4.1_[A6C]_F4.1_T4.1] | > 2300 |
| UCUCUUCUUAUAUAUAGUUCUCUU (ssRNA) [Id_ii_S1_P3E.3_K3.2_C3.2_H3.2_A3.1_F3.1_T3.2_[T9G]_[A10T]] | 109 |
| UCUCUUGUACACUAUAUUUCUCUU (ssRNA) [Id_ii_S1_P3E.4_K3.3_C3.2_[C-2G]_H3.3_A3.1_F3.1_T3.2_[A10T]] | 0.901 |
| UCUCUUUGUAUAGUAUCUCUU (ssRNA) [Ia_S1_P4E.1_K4.1_C4.1_H4.1_A4.1_[T7G]_F4.1_T4.1] | 2.25 |
| UCUCUUCAUAUAUAUAUCUCUCUU (ssRNA) [Id_ii_S1_P3E.3_K3.2_C3.2_[T-1A]_H3.2_A3.1_F3.1_T3.2_[A10C]] | 717 |
| UCUCUUGCACACUAUAUUUCUCUU (ssRNA) [Id_ii_S1_P3E.4_K3.3_C3.2_[C-2G]_[T-1C]_H3.3_A3.1_F3.1_T3.2_[A10T]] | 94.8 |
| UCUCUUUUACACUAUACAUCUCUU (ssRNA) [Id_ii_S1_P3E.4_K3.3_C3.2_[C-2T]_H3.3_A3.1_F3.1_T3.2_[T9C]] | 1140 |
| UCUCUUCUUAUAUAUACUUCUCUU (ssRNA) [Id_ii_S1_P3E.3_K3.2_C3.2_H3.2_A3.1_F3.1_T3.2_[T9C]_[A10T]] | 634 |
| UCUCUUCUUAUAUAUAUAUCUCUU (ssRNA) [Id_ii_S1_P3E.3_K3.2_C3.2_H3.2_A3.1_F3.1_T3.2] | 394 |
| UCUCUUUUACACUAUACUUCUCUU (ssRNA) [Id_ii_S1_P3E.4_K3.3_C3.2_[C-2T]_H3.3_A3.1_F3.1_T3.2_[T9C]_[A10T]] | 1220 |
| UCUCUUCAUAUAUAUAUUUCUCUU (ssRNA) [Id_ii_S1_P3E.3_K3.2_C3.2_[T-1A]_H3.2_A3.1_F3.1_T3.2_[A10T]] | 515 |
| UCUCUUCAUAUAUAUAGGUCUCUU (ssRNA) [Id_ii_S1_P3E.3_K3.2_C3.2_[T-1A]_H3.2_A3.1_F3.1_T3.2_[T9G]_[A10G]] | 804 |
| UCUCUUUUACACUAUAAGUCUCUU (ssRNA) [Id_ii_S1_P3E.4_K3.3_C3.2_[C-2T]_H3.3_A3.1_F3.1_T3.2_[T9A]_[A10G]] | 1520 |
| UCUCUUUAACACUAUACGUCUCUU (ssRNA) [Id_ii_S1_P3E.4_K3.3_C3.2_[C-2T]_[T-1A]_H3.3_A3.1_F3.1_T3.2_[T9C]_[A10G]] | > 2300 |
| UCUCUUGUACACUAUAUAUCUCUU (ssRNA) [Id_ii_S1_P3E.4_K3.3_C3.2_[C-2G]_H3.3_A3.1_F3.1_T3.2] | 0.819 |
| UCUCUUCUUAUAUAUACCUCUCUU (ssRNA) [Id_ii_S1_P3E.3_K3.2_C3.2_H3.2_A3.1_F3.1_T3.2_[T9C]_[A10C]] | 1300 |

| Binder | Kd [nM] |
| --- | --- |
| UCUCUUCAUAUAUAUAUAUCUCUU (ssRNA) [Id_ii_S1_P3E.3_K3.2_C3.2_[T-1A]_H3.2_A3.1_F3.1_T3.2] | 624 |
| UCUCUUUAUAUGUUAUCUCUU (ssRNA) [Ib_S1_P4E.1_K4.1_C4.1_H4.1_[G2A]_A4.1_[A6G]_F4.1_T4.1] | 635 |
| UCUCUUCUUAUAUAUAUCUCUCUU (ssRNA) [Id_ii_S1_P3E.3_K3.2_C3.2_H3.2_A3.1_F3.1_T3.2_[A10C]] | 600 |
| UCUCUUCAUAUAUAUACUUCUCUU (ssRNA) [Id_ii_S1_P3E.3_K3.2_C3.2_[T-1A]_H3.2_A3.1_F3.1_T3.2_[T9C]_[A10T]] | 618 |
| UCUCUUCCUAUAUAUAUUUCUCUU (ssRNA) [Id_ii_S1_P3E.3_K3.2_C3.2_[T-1C]_H3.2_A3.1_F3.1_T3.2_[A10T]] | 673 |
| UCUCUUGUACACUAUAUCUCUCUU (ssRNA) [Id_ii_S1_P3E.4_K3.3_C3.2_[C-2G]_H3.3_A3.1_F3.1_T3.2_[A10C]] | 0.836 |
| UCUCUUCUUAUAUAUAAAUCUCUU (ssRNA) [Id_ii_S1_P3E.3_K3.2_C3.2_H3.2_A3.1_F3.1_T3.2_[T9A]] | 1180 |
| UCUCUUUUACACUAUAUAUCUCUU (ssRNA) [Id_ii_S1_P3E.4_K3.3_C3.2_[C-2T]_H3.3_A3.1_F3.1_T3.2] | 1030 |
| UCUCUUUCACACUAUACCUCUCUU (ssRNA) [Id_ii_S1_P3E.4_K3.3_C3.2_[C-2T]_[T-1C]_H3.3_A3.1_F3.1_T3.2_[T9C]_[A10C]] | > 2300 |
| UCUCUUUGACACUAUAAUUCUCUU (ssRNA) [Id_ii_S1_P3E.4_K3.3_C3.2_[C-2T]_[T-1G]_H3.3_A3.1_F3.1_T3.2_[T9A]_[A10T]] | > 2300 |
| UCUCUUGUACACUAUAAUUCUCUU (ssRNA) [Id_ii_S1_P3E.4_K3.3_C3.2_[C-2G]_H3.3_A3.1_F3.1_T3.2_[T9A]_[A10T]] | 1.16 |
| UCUCUUCAUAUAUAUACAUCUCUU (ssRNA) [Id_ii_S1_P3E.3_K3.2_C3.2_[T-1A]_H3.2_A3.1_F3.1_T3.2_[T9C]] | 1300 |
| UCUCUUUUACACUAUAUGUCUCUU (ssRNA) [Id_ii_S1_P3E.4_K3.3_C3.2_[C-2T]_H3.3_A3.1_F3.1_T3.2_[A10G]] | 2220 |
| UCUCUUUUACACUAUAGCUCUCUU (ssRNA) [Id_ii_S1_P3E.4_K3.3_C3.2_[C-2T]_H3.3_A3.1_F3.1_T3.2_[T9G]_[A10C]] | > 2300 |
| UCUCUUUCACACUAUAUUUCUCUU (ssRNA) [Id_ii_S1_P3E.4_K3.3_C3.2_[C-2T]_[T-1C]_H3.3_A3.1_F3.1_T3.2_[A10T]] | > 2300 |
| UCUCUUGCACACUAUAACUCUCUU (ssRNA) [Id_ii_S1_P3E.4_K3.3_C3.2_[C-2G]_[T-1C]_H3.3_A3.1_F3.1_T3.2_[T9A]_[A10C]] | 110 |
| UCUCUUCCUAUAUAUAUCUCUCUU (ssRNA) [Id_ii_S1_P3E.3_K3.2_C3.2_[T-1C]_H3.2_A3.1_F3.1_T3.2_[A10C]] | 1000 |
| UCUCUUGCACACUAUACCUCUCUU (ssRNA) [Id_ii_S1_P3E.4_K3.3_C3.2_[C-2G]_[T-1C]_H3.3_A3.1_F3.1_T3.2_[T9C]_[A10C]] | 278 |
| UCUCUUUUACACUAUAAUUCUCUU (ssRNA) [Id_ii_S1_P3E.4_K3.3_C3.2_[C-2T]_H3.3_A3.1_F3.1_T3.2_[T9A]_[A10T]] | > 2300 |
| UCUCUUGUACACUAUACCUCUCUU (ssRNA) [Id_ii_S1_P3E.4_K3.3_C3.2_[C-2G]_H3.3_A3.1_F3.1_T3.2_[T9C]_[A10C]] | 0.984 |
| UCUCUUUAUAUCUUAUCUCUU (ssRNA) [Ib_S1_P4E.1_K4.1_C4.1_H4.1_[G2A]_A4.1_[A6C]_F4.1_T4.1] | 672 |

| Binder | Kd [nM] |
| --- | --- |
| UCUCUUCAUAUAUAUACGUCUCUU (ssRNA) [Id_ii_S1_P3E.3_K3.2_C3.2_[T-1A]_H3.2_A3.1_F3.1_T3.2_[T9C]_[A10G]] | 1120 |
| UCUCUUUUUAUUUUAUCUCUU (ssRNA) [Ib_S1_P4E.1_K4.1_C4.1_H4.1_[G2T]_A4.1_[A6T]_F4.1_T4.1] | > 2300 |
| UCUCUUGCACACUAUACGUCUCUU (ssRNA) [Id_ii_S1_P3E.4_K3.3_C3.2_[C-2G]_[T-1C]_H3.3_A3.1_F3.1_T3.2_[T9C]_[A10G]] | 671 |
| UCUCUUCUUAUAUAUAUGUCUCUU (ssRNA) [Id_ii_S1_P3E.3_K3.2_C3.2_H3.2_A3.1_F3.1_T3.2_[A10G]] | 499 |
| UCUCUUCCUAUAUAUAACUCUCUU (ssRNA) [Id_ii_S1_P3E.3_K3.2_C3.2_[T-1C]_H3.2_A3.1_F3.1_T3.2_[T9A]_[A10C]] | 1070 |
| UCUCUUGCACACUAUACUUCUCUU (ssRNA) [Id_ii_S1_P3E.4_K3.3_C3.2_[C-2G]_[T-1C]_H3.3_A3.1_F3.1_T3.2_[T9C]_[A10T]] | 122 |
| UCUCUUCCUAUAUAUAUAUCUCUU (ssRNA) [Id_ii_S1_P3E.3_K3.2_C3.2_[T-1C]_H3.2_A3.1_F3.1_T3.2] | 578 |
| UCUCUUCCUAUAUAUAAGUCUCUU (ssRNA) [Id_ii_S1_P3E.3_K3.2_C3.2_[T-1C]_H3.2_A3.1_F3.1_T3.2_[T9A]_[A10G]] | 1540 |
| UCUCUUCAUAUAUAUAAUUCUCUU (ssRNA) [Id_ii_S1_P3E.3_K3.2_C3.2_[T-1A]_H3.2_A3.1_F3.1_T3.2_[T9A]_[A10T]] | 669 |
| UCUCUUUUACACUAUACGUCUCUU (ssRNA) [Id_ii_S1_P3E.4_K3.3_C3.2_[C-2T]_H3.3_A3.1_F3.1_T3.2_[T9C]_[A10G]] | 2060 |
| UCUCUUUGACACUAUACAUCUCUU (ssRNA) [Id_ii_S1_P3E.4_K3.3_C3.2_[C-2T]_[T-1G]_H3.3_A3.1_F3.1_T3.2_[T9C]] | > 2300 |
| UCUCUUCUUAUAUAUAGCUCUCUU (ssRNA) [Id_ii_S1_P3E.3_K3.2_C3.2_H3.2_A3.1_F3.1_T3.2_[T9G]_[A10C]] | 77.5 |
| UCUCUUGCACACUAUACAUCUCUU (ssRNA) [Id_ii_S1_P3E.4_K3.3_C3.2_[C-2G]_[T-1C]_H3.3_A3.1_F3.1_T3.2_[T9C]] | 275 |
| UCUCUUGUACACUAUAACUCUCUU (ssRNA) [Id_ii_S1_P3E.4_K3.3_C3.2_[C-2G]_H3.3_A3.1_F3.1_T3.2_[T9A]_[A10C]] | 1.63 |
| UCUCUUUCACACUAUAAUUCUCUU (ssRNA) [Id_ii_S1_P3E.4_K3.3_C3.2_[C-2T]_[T-1C]_H3.3_A3.1_F3.1_T3.2_[T9A]_[A10T]] | > 2300 |
| UCUCUUUAUACAUUAUCUCUU (ssRNA) [Ib_S1_P4E.1_K4.1_C4.1_H4.1_[G2A]_A4.1_[T5C]_F4.1_T4.1] | 23.8 |
| UCUCUUUCACACUAUAAAUCUCUU (ssRNA) [Id_ii_S1_P3E.4_K3.3_C3.2_[C-2T]_[T-1C]_H3.3_A3.1_F3.1_T3.2_[T9A]] | > 2300 |
| UCUCUUUUACACUAUACCUCUCUU (ssRNA) [Id_ii_S1_P3E.4_K3.3_C3.2_[C-2T]_H3.3_A3.1_F3.1_T3.2_[T9C]_[A10C]] | 1910 |
| UCUCUUUAUAAAUUAUCUCUU (ssRNA) [Ib_S1_P4E.1_K4.1_C4.1_H4.1_[G2A]_A4.1_[T5A]_F4.1_T4.1] | 128 |
| UCUCUUUUACACUAUAUCUCUCUU (ssRNA) [Id_ii_S1_P3E.4_K3.3_C3.2_[C-2T]_H3.3_A3.1_F3.1_T3.2_[A10C]] | 1380 |
| UCUCUUCAUAUAUAUAGUUCUCUU (ssRNA) [Id_ii_S1_P3E.3_K3.2_C3.2_[T-1A]_H3.2_A3.1_F3.1_T3.2_[T9G]_[A10T]] | 413 |
